Experimental findings from patent US20140087995A1 (published 2014) are described below.

Sequences and labels used below:
B1: N^ε1-[2-[2-[2-(19-carboxynonadecanoylamino)ethoxy]ethoxy]acetyl]-[Arg17,Pro21,Pro27,His34]-h-amylin (peptide)
peptide: K([AEEA-C20 diacid])CNTATCATQRLANFLRHSSPNFGAIPSSTNVGHNTY-NH2
modifications: disulfide 2-7; N-terminus assumed
SMILES: CC[C@H](C)[C@H](NC(=O)[C@H](C)NC(=O)CNC(=O)[C@H](Cc1ccccc1)NC(=O)[C@H](CC(N)=O)NC(=O)[C@@H]1CCCN1C(=O)[C@H](CO)NC(=O)[C@H](CO)NC(=O)[C@H](Cc1c[nH]cn1)NC(=O)[C@H](CCCNC(=N)N)NC(=O)[C@H](CC(C)C)NC(=O)[C@H](Cc1ccccc1)NC(=O)[C@H](CC(N)=O)NC(=O)[C@H](C)NC(=O)[C@H](CC(C)C)NC(=O)[C@H](CCCNC(=N)N)NC(=O)[C@H](CCC(N)=O)NC(=O)[C@@H](NC(=O)[C@H](C)NC(=O)[C@@H]1CSSC[C@H](NC(=O)[C@@H](N)CCCCNC(=O)COCCOCCNC(=O)CCCCCCCCCCCCCCCCCCC(=O)O)C(=O)N[C@@H](CC(N)=O)C(=O)N[C@@H]([C@@H](C)O)C(=O)N[C@@H](C)C(=O)N[C@@H]([C@@H](C)O)C(=O)N1)[C@@H](C)O)C(=O)N1CCC[C@H]1C(=O)N[C@@H](CO)C(=O)N[C@@H](CO)C(=O)N[C@H](C(=O)N[C@@H](CC(N)=O)C(=O)N[C@H](C(=O)NCC(=O)N[C@@H](Cc1c[nH]cn1)C(=O)N[C@@H](CC(N)=O)C(=O)N[C@H](C(=O)N[C@@H](Cc1ccc(O)cc1)C(N)=O)[C@@H](C)O)C(C)C)[C@@H](C)O
notes: Analogue of human amylin; disulfide and C-terminal amide as told for h-amylin; also called compound 91
B2: N^ε1-[2-[2-[2-[[(4S)-4-carboxy-4-(19-carboxynonadecanoylamino)butanoyl]amino]ethoxy]ethoxy]acetyl]-[Ala14,Arg17,Pro21,Pro27,Pro31]-h-amylin (peptide)
peptide: K([AEEA-γGlu-C20 diacid])CNTATCATQRLAAFLRHSSPNFGAIPSSTPVGSNTY-NH2
modifications: disulfide 2-7; N-terminus assumed
SMILES: CC[C@H](C)[C@H](NC(=O)[C@H](C)NC(=O)CNC(=O)[C@H](Cc1ccccc1)NC(=O)[C@H](CC(N)=O)NC(=O)[C@@H]1CCCN1C(=O)[C@H](CO)NC(=O)[C@H](CO)NC(=O)[C@H](Cc1c[nH]cn1)NC(=O)[C@H](CCCNC(=N)N)NC(=O)[C@H](CC(C)C)NC(=O)[C@H](Cc1ccccc1)NC(=O)[C@H](C)NC(=O)[C@H](C)NC(=O)[C@H](CC(C)C)NC(=O)[C@H](CCCNC(=N)N)NC(=O)[C@H](CCC(N)=O)NC(=O)[C@@H](NC(=O)[C@H](C)NC(=O)[C@@H]1CSSC[C@H](NC(=O)[C@@H](N)CCCCNC(=O)COCCOCCNC(=O)CC[C@H](NC(=O)CCCCCCCCCCCCCCCCCCC(=O)O)C(=O)O)C(=O)N[C@@H](CC(N)=O)C(=O)N[C@@H]([C@@H](C)O)C(=O)N[C@@H](C)C(=O)N[C@@H]([C@@H](C)O)C(=O)N1)[C@@H](C)O)C(=O)N1CCC[C@H]1C(=O)N[C@@H](CO)C(=O)N[C@@H](CO)C(=O)N[C@H](C(=O)N1CCC[C@H]1C(=O)N[C@H](C(=O)NCC(=O)N[C@@H](CO)C(=O)N[C@@H](CC(N)=O)C(=O)N[C@H](C(=O)N[C@@H](Cc1ccc(O)cc1)C(N)=O)[C@@H](C)O)C(C)C)[C@@H](C)O
notes: Analogue of human amylin; disulfide and C-terminal amide as told for h-amylin; also called compound 72
B3: N^ε1-[2-[2-[2-[[(4S)-4-carboxy-4-(19-carboxynonadecanoylamino)butanoyl]amino]ethoxy]ethoxy]acetyl]-[Arg14,Arg17,Pro21,Pro27,Pro31]-h-amylin (peptide)
peptide: K([AEEA-γGlu-C20 diacid])CNTATCATQRLARFLRHSSPNFGAIPSSTPVGSNTY-NH2
modifications: disulfide 2-7; N-terminus assumed
SMILES: CC[C@H](C)[C@H](NC(=O)[C@H](C)NC(=O)CNC(=O)[C@H](Cc1ccccc1)NC(=O)[C@H](CC(N)=O)NC(=O)[C@@H]1CCCN1C(=O)[C@H](CO)NC(=O)[C@H](CO)NC(=O)[C@H](Cc1c[nH]cn1)NC(=O)[C@H](CCCNC(=N)N)NC(=O)[C@H](CC(C)C)NC(=O)[C@H](Cc1ccccc1)NC(=O)[C@H](CCCNC(=N)N)NC(=O)[C@H](C)NC(=O)[C@H](CC(C)C)NC(=O)[C@H](CCCNC(=N)N)NC(=O)[C@H](CCC(N)=O)NC(=O)[C@@H](NC(=O)[C@H](C)NC(=O)[C@@H]1CSSC[C@H](NC(=O)[C@@H](N)CCCCNC(=O)COCCOCCNC(=O)CC[C@H](NC(=O)CCCCCCCCCCCCCCCCCCC(=O)O)C(=O)O)C(=O)N[C@@H](CC(N)=O)C(=O)N[C@@H]([C@@H](C)O)C(=O)N[C@@H](C)C(=O)N[C@@H]([C@@H](C)O)C(=O)N1)[C@@H](C)O)C(=O)N1CCC[C@H]1C(=O)N[C@@H](CO)C(=O)N[C@@H](CO)C(=O)N[C@H](C(=O)N1CCC[C@H]1C(=O)N[C@H](C(=O)NCC(=O)N[C@@H](CO)C(=O)N[C@@H](CC(N)=O)C(=O)N[C@H](C(=O)N[C@@H](Cc1ccc(O)cc1)C(N)=O)[C@@H](C)O)C(C)C)[C@@H](C)O
notes: Analogue of human amylin; disulfide and C-terminal amide as told for h-amylin; also called compound 64
B4: N^ε1-[2-[2-[2-[[(4S)-4-carboxy-4-(19-carboxynonadecanoylamino)butanoyl]amino]ethoxy]ethoxy]acetyl]-[Arg14,Arg17,Pro21,Pro27]-h-amylin (peptide)
peptide: K([AEEA-γGlu-C20 diacid])CNTATCATQRLARFLRHSSPNFGAIPSSTNVGSNTY-NH2
modifications: disulfide 2-7; N-terminus assumed
SMILES: CC[C@H](C)[C@H](NC(=O)[C@H](C)NC(=O)CNC(=O)[C@H](Cc1ccccc1)NC(=O)[C@H](CC(N)=O)NC(=O)[C@@H]1CCCN1C(=O)[C@H](CO)NC(=O)[C@H](CO)NC(=O)[C@H](Cc1c[nH]cn1)NC(=O)[C@H](CCCNC(=N)N)NC(=O)[C@H](CC(C)C)NC(=O)[C@H](Cc1ccccc1)NC(=O)[C@H](CCCNC(=N)N)NC(=O)[C@H](C)NC(=O)[C@H](CC(C)C)NC(=O)[C@H](CCCNC(=N)N)NC(=O)[C@H](CCC(N)=O)NC(=O)[C@@H](NC(=O)[C@H](C)NC(=O)[C@@H]1CSSC[C@H](NC(=O)[C@@H](N)CCCCNC(=O)COCCOCCNC(=O)CC[C@H](NC(=O)CCCCCCCCCCCCCCCCCCC(=O)O)C(=O)O)C(=O)N[C@@H](CC(N)=O)C(=O)N[C@@H]([C@@H](C)O)C(=O)N[C@@H](C)C(=O)N[C@@H]([C@@H](C)O)C(=O)N1)[C@@H](C)O)C(=O)N1CCC[C@H]1C(=O)N[C@@H](CO)C(=O)N[C@@H](CO)C(=O)N[C@H](C(=O)N[C@@H](CC(N)=O)C(=O)N[C@H](C(=O)NCC(=O)N[C@@H](CO)C(=O)N[C@@H](CC(N)=O)C(=O)N[C@H](C(=O)N[C@@H](Cc1ccc(O)cc1)C(N)=O)[C@@H](C)O)C(C)C)[C@@H](C)O
notes: Analogue of human amylin; disulfide and C-terminal amide as told for h-amylin; also called compound 82

Numbered stars: 1 amine (or outer) side, 2 acyl side, 3 side chain; on linkers, the order of the positions; unused ones are H or OH. Bridge positions count the residues as written; N and C are the ends. Side chains are listed from the residue outwards. Ends that are not written are not given here. * marks the point of attachment. C20 diacid = O=C(O)CCCCCCCCCCCCCCCCCCC(=O)*; γGlu = O=C(O)[C@H](CCC(=O)[*:2])N[*:1]; AEEA = NCCOCCOCC(=O)O

In one assay the target is T1, rat calcitonin receptor (rat, UniProt P32214 25-516).
T1 construct: whole, on cells; Used as membranes prepared from the transfected cells; also called rCTR; rCT
T1 sequence (looked up): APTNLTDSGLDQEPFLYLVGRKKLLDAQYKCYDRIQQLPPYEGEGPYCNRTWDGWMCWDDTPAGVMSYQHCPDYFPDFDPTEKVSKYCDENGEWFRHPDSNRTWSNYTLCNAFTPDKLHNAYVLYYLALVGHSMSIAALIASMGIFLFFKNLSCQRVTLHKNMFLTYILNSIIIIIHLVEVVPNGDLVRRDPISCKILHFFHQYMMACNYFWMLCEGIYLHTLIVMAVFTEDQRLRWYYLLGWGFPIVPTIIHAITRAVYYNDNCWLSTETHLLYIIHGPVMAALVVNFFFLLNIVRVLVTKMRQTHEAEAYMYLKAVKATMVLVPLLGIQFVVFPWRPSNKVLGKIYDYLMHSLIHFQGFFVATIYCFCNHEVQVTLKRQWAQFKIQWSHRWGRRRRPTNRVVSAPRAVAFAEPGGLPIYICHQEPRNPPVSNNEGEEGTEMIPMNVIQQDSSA
Kind of assay: ratio of binding IC50 at rat calcitonin receptor to IC50 at rat amylin receptor (reference).
With B1, the “Ratio rCT/rAmylin binding” value is 76.3.
Take B2: the “Ratio rCT/rAmylin binding” value turned out to be 259.
Consider B3, for which the “Ratio rCT/rAmylin binding” value turned out to be 64.7.
As for B4, the “Ratio rCT/rAmylin binding” value is 87.

The target of another assay is T1, rat calcitonin receptor. Nature of the assay: SPA competition with 125I-calcitonin, membranes with rat calcitonin receptor (Assay VIII).
Usually IC50 stands for the concentration that inhibits the measured activity by half. Turning to B1, the 50% inhibitory concentration (IC50) worked out at 29.4 nM.
Turning to B2, the half-maximal inhibitory concentration (IC50) came to 221 nM.
Consider B3, for which the IC50 is 128 nM.
As for B4, the IC50 came to 143 nM.

The target of another assay is T2, human calcitonin receptor (human, UniProt P30988 25-474).
T2 construct: whole, on cells; Used as membranes prepared from the transfected cells; also called hCTR; hCT
T2 sequence (looked up): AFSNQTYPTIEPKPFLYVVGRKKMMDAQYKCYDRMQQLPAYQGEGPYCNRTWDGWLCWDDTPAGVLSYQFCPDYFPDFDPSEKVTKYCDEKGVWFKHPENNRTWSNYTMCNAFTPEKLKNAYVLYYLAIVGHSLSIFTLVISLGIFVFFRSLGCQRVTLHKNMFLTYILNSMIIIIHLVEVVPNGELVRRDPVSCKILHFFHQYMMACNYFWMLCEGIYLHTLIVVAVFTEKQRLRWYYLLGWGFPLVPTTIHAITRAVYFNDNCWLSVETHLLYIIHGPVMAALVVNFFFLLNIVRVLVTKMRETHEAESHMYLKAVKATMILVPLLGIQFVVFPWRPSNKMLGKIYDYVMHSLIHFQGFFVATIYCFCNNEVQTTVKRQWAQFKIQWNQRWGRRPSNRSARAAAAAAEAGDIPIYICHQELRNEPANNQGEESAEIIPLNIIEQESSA
Nature of the assay: ratio of binding IC50 at human calcitonin receptor to IC50 at human amylin receptor (reference). As to the method:
The resulting pellet was resuspended, homogenized and centrifuged (20.000 rpm, 15 min) in a buffer containing 20 mM Na-HEPES and 0.1 mM EDTA (pH 7.4, buffer 2). The resulting pellet was resuspended in buffer 2 and protein concentration was measured (BCA protein Assay, Pierce). The homogenate was kept cold during the whole procedure. The membranes were kept at −80° C. until use. The assay was performed in a 384 well Optiplate (PerkinElmer) in a total volume of 40 ul. Membranes were mixed with SPA beads. Final concentration of membranes 35 ng/μL final and SPA beads was 0.05 mg/well. Test-compounds were dissolved in DMSO and further diluted in assay buffer (50 mM Hepes, pH 7.4, 1 mM CaCl2, 5 mM MgCl₂, 0.1% OA and 0.02% Tween20). […] The final mixture was incubated with shaking at 400 rpm for 120 min at 25° C. prior to centrifugation (1500 rpm, 10 min). Samples were analyzed on TopCounter™ (Packard). The IC₅₀ was calculated using (one site binding competition analysis) GraphPad Prism5 as a measure of receptor affinity.
Membranes were prepared in the following way; the cells were rinsed with PBS and incubated with Versene for approximately 5 min before harvesting. The cells were flushed with PBS and the cell-suspension was centrifuged for 5 min at 1000 rpm. Cells were homogenized (Ultrathurrax) in a buffer containing 20 mM Na-HEPES and 10 mM EDTA (pH 7.4) and centrifuged at 20.000 rpm for 15 min. The resulting pellet was resuspended, homogenized and centrifuged (20.000 rpm, 15 min) in a buffer containing 20 mM Na-HEPES and 0.1 mM EDTA (pH 7.4, buffer 2). The resulting pellet was resuspended in buffer 2 and protein concentration was measured (BCA protein Assay, Pierce). The homogenate was kept cold during the whole procedure. The membranes were kept at −80° C. until use. Assay was performed in a 384 well Optiplate (PerkinElmer) in a total volume of 40 ul. Membranes were mixed with SPA beads.
For the molecule B1, the “Ratio hCT/hAmylin binding” value stood at 101.
On to B2, for which the “Ratio hCT/hAmylin binding” value was found to be 247.
On to B3, for which the “Ratio hCT/hAmylin binding” value came to 126.
As to B4, the “Ratio hCT/hAmylin binding” value was 140.
